Data: US20260185137

Assays:
[1] = target: AF594-UBE2N~AF488-Ub/UBE2V2 conjugate, P61088
[2] = target: AF594-UBE2W~AF488-Ub conjugate, Q96B02
AF594-UBE2W~AF488-Ub conjugate, Q96B02, sequence (Q96B02 whole entry, looked up): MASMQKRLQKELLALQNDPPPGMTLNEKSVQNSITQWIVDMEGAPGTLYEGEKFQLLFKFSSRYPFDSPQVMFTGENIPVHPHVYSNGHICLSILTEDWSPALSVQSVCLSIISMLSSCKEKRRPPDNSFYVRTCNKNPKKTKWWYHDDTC

AF594-UBE2N~AF488-Ub/UBE2V2 conjugate, P61088, sequence (P61088 whole entry, looked up): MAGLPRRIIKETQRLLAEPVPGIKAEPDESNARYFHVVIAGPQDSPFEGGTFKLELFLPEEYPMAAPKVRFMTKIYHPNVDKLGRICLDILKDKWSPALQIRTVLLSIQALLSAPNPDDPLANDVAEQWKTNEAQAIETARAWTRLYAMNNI

Row | Protein | E3 activity (kcat/Km) for ubiquitin discharge, FRET ubiquitin discharge assay [1] | E3 activity (initial slope of Michaelis-Menten curve of FRET decay amplitude), FRET ubiquitin discharge assay [2] | E3 activity per RING monomer for ubiquitin discharge, FRET ubiquitin discharge assay [1]
1 | R2-WT, tandem RING dimer construct of rhesus monkey TRIM5alpha (protein) ASGILLNVKEEVTCPICLELLTEPLSLHCGHSFCQACITANHKKSMLYKEGERSCPVCRISYQPENIQPNRHVANIVEKLRGSASGILLNVKEEVTCPICLELLTEPLSLHCGHSFCQACITANHKKSMLYKEGERSCPVCRISYQPENIQPNRHVANIVEKLREVKLSPEEGQ | The E3 activity of the R2-WT is also significantly higher than that of the R1-WT |  | 
2 | R3-I77R, trimeric RING-foldon construct of rhesus monkey TRIM5alpha with the I77R mutation (protein) ASGILLNVKEEVTCPICLELLTEPLSLHCGHSFCQACITANHKKSMLYKEGERSCPVCRISYQPENIQPNRHVANRVEKLREVKLSPEEGQKVDGYIPEAPRDGQAYVRKDGEWVFLSTFLHHHHHH | catalysis of ubiquitin discharge from the UBE2N/V2-Ub conjugate is virtually abolished by the I77R mutation in the R1-177R and R3-177R constructs | the R3-177R and R1-177R constructs retained less than 10% of the R3-WT and R1-WT E3 activity, respectively | 
3 | R3-WT, trimeric RING construct of rhesus monkey TRIM5alpha fused to T4 fibritin foldon (protein) ASGILLNVKEEVTCPICLELLTEPLSLHCGHSFCQACITANHKKSMLYKEGERSCPVCRISYQPENIQPNRHVANIVEKLREVKLSPEEGQKVDGYIPEAPRDGQAYVRKDGEWVFLSTFLHHHHHH |  | significantly higher activity of the R3-WT construct in comparison to R2-WT | the E3 activity per RING monomer is lower in the R3-WT construct than in R2-WT
4 | R1-I77R, RING domain construct of rhesus monkey TRIM5alpha with the I77R mutation (protein) ASGILLNVKEEVTCPICLELLTEPLSLHCGHSFCQACITANHKKSMLYKEGERSCPVCRISYQPENIQPNRHVANRVEKLREVKLSPEE | catalysis of ubiquitin discharge from the UBE2N/V2-Ub conjugate is virtually abolished by the I77R mutation in the R1-177R and R3-177R constructs | the R3-177R and R1-177R constructs retained less than 10% of the R3-WT and R1-WT E3 activity, respectively | 
